Measured values published in PMC9081242 (Structure (London, England : 1993), 2022).
Values belong to the molecule of their own block, whether it stands above or below them.

Legend:
[1] = molecular target: CCM1 E5R1 (non-glycosylated, spin-labelled) (human) (UniProt P13688); experiment: continuous-wave EPR
[2] = molecular target: CCM1 Q103R1 (non-glycosylated, spin-labelled) (human) (UniProt P13688); experiment: continuous-wave EPR
[3] = molecular target: gCCM1 Q103R1 (single GlcNAc modifications, spin-labelled) (human) (UniProt P13688); experiment: continuous-wave EPR
[4] = molecular target: cgCCM1 E5R1 (complex N-linked glycans, spin-labelled) (human) (UniProt P13688); experiment: continuous-wave EPR
[5] = molecular target: cgCCM1 Q103R1 (complex N-linked glycans, spin-labelled) (human) (UniProt P13688); experiment: continuous-wave EPR
[6] = molecular target: gCCM1 E5R1 (single GlcNAc modifications, spin-labelled) (human) (UniProt P13688); experiment: continuous-wave EPR
[7] = molecular target: CCM1 D94R1 (non-glycosylated, spin-labelled) (human) (UniProt P13688); experiment: continuous-wave EPR
SEC = molecular target: the molecule itself; experiment: SEC

Molecule: CCM1 E5R1 (non-glycosylated, spin-labelled) (from UniProt P13688 69-175) (domain or fragment)
stoichiometry N [1]: 2

Molecule: CCM1 Q103R1 (non-glycosylated, spin-labelled) (from UniProt P13688 69-175) (domain or fragment)
stoichiometry N [2]: 2

Molecule: gCCM1 E5R1 (single GlcNAc modifications, spin-labelled) (from UniProt P13688 68-175) (domain or fragment)
stoichiometry N [6]: 2

Molecule: CCM1 D94R1 (non-glycosylated, spin-labelled) (from UniProt P13688 69-175) (domain or fragment)
stoichiometry N [7]: 2

B1: non-glycosylated CEACAM1 N-terminal Ig-like domain (CCM1) (domain or fragment, human, UniProt P13688 35-141, looked up)
chain: QLTTESMPFNVAEGKEVLLLVHNLPQQLFGYSWYKGERVDGNRQIVGYAIGTQQATPGPANSGRETIYPNASLLIQNVTQNDTGFYTLQVIKSDLVNEEATGQFHVY
stoichiometry N (SEC): 2

The remaining lines, values ahead:

stoichiometry N [3]: 2
Molecule: gCCM1 Q103R1 (single GlcNAc modifications, spin-labelled) (from UniProt P13688 68-175) (domain or fragment)

stoichiometry N [4]: 2
Molecule: cgCCM1 E5R1 (complex N-linked glycans, spin-labelled) (from UniProt P13688 68-175) (domain or fragment)

stoichiometry N [5]: 2
Molecule: cgCCM1 Q103R1 (complex N-linked glycans, spin-labelled) (from UniProt P13688 68-175) (domain or fragment)
